Data on 1 molecule can be found in patent publication US20020160955A1.

This assay deals with T1, IGF-I F49A (G1S-A70V background) displayed on phage (human; bacteriophage M13).
T1 chain: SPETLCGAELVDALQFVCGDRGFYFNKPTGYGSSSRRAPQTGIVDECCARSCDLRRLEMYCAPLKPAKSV
Put plainly: competitive phage ELISA; IC50mut/IC50 G1S-A70V. As to conditions: remark: other sources report otherwise.

B1: human IGFBP-1, P08833 26-259 (protein, UniProt P08833 26-259, looked up)
chain: APWQCAPCSAEKLALCPPVSASCSEVTRSAGCGCCPMCALPLGAACGVATARCARGLSCRALPGEQQPLHALTRGQGACVQESDASAPHAAEAGSPESPESTEITEEELLDNFHLMAPSEEDHSILWDAISTYDGSKALHVTNIKKWKEPCRIELYRVVESLAKAQETSGEEISKFYLPNCNKNGFYHSRQCETSMDGEAGLCWCVYPWNGKRIPGSPEIRGDPNCQIYFNVQN
B1 yielded a relative IC50 above 100.
